What was measured:
NKG2D [1] = molecular target: T1, NKG2D (human, UniProt P26718 1-216); assay: flow cytometry (FACSCalibur), activated NK cells, 10 ug/ml, R-PE GMFI on CD56+ live cells
T1 construct: whole, on cells; also called NKGD
T1 sequence (looked up): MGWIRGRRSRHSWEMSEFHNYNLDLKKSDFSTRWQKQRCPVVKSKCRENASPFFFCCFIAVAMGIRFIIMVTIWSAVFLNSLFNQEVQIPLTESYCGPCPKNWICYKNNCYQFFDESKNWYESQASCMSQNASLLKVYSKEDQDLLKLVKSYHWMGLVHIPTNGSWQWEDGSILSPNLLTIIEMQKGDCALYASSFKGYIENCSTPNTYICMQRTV

NKG2D [2] = molecular target: T1, NKG2D; assay: flow cytometry (FACSCanto), cells carrying the target (line not given), 2 ug/mL

B1: DVD1215 (bispecific antibody)
VH: QVQLQESGPGLVKPSQTLSLTCTVSGYSISSDFAWNWIRQPPGKGLEWMGYISYSGNTRYQPSLKSRITISRDTSKNQFFLKLNSVTAADTATYYCVTAGRGFPYWGQGTLVTVSSASTKGPSVFPLAPQVQLVESGGGLVKPGGSLRLSCAASGFTFSSYGMHWVRQAPGKGLEWVAFIRYDGSNKYYADSVKGRFTISRDNSKNTLYLQMNSLRAEDTAVYYCAKDRGLGDGTYFDYWGQGTTVTVSS
VL: DIQMTQSPSSMSVSVGDRVTITCHSSQDINSNIGWLQQKPGKSFKGLIYHGTNLDDGVPSRFSGSGSGTDYTLTISSLQPEDFATYYCVQYAQFPWTFGGGTKLEIKRTVAAPSVFIFPPQSALTQPASVSGSPGQSITISCSGSSSNIGNNAVNWYQQLPGKAPKLLIYYDDLLPSGVSDRFSGSKSGTSAFLAISGLQSEDEADYYCAAWDDSLNGPVFGGGTKLTVLG
notes: DVD-Ig; dual variable domains only; Outer AB064, inner AB121; also called DVD1215H + DVD1215L
- FACS Geometric Mean C-terminal (NKG2D [1]): 31.7

B2: DVD1053 (bispecific antibody)
VH: QVQLQQPGAELVKPGASVKMSCKASGYTFTSYNMHWVKQTPGRGLEWIGAIYPGNGDTSYNQKFKGKATLTADKSSSTAYMQLSSLTSEDSAVYYCARSTYYGGDWYFNVWGAGTTVTVSAASTKGPSVFPLAPQVQLVESGGGLVKPGGSLRLSCAASGFTFSSYGMHWVRQAPGKGLEWVAFIRYDGSNKYYADSVKGRFTISRDNSKNTLYLQMNSLRAEDTAVYYCAKDRGLGDGTYFDYWGQGTTVTVSS
VL: QIVLSQSPAILSPSPGEKVTMTCRASSSVSYIHWFQQKPGSSPKPWIYATSNLASGVPVRFSGSGSGTSYSLTISRVEAEDAATYYCQQWTSNPPTFGGGTKLEIKRTVAAPSVFIFPPQSALTQPASVSGSPGQSITISCSGSSSNIGNNAVNWYQQLPGKAPKLLIYYDDLLPSGVSDRFSGSKSGTSAFLAISGLQSEDEADYYCAAWDDSLNGPVFGGGTKLTVLG
notes: DVD-Ig; dual variable domains only; Outer AB001, inner AB121; also called CD-20 / NKG2D DVD-Ig; DVD1053H + DVD1053L
- FACS Geometric Mean C-terminal (NKG2D [1]): 31.7

B3: AB121 (antibody, V domains shown)
VH: QVQLVESGGGLVKPGGSLRLSCAASGFTFSSYGMHWVRQAPGKGLEWVAFIRYDGSNKYYADSVKGRFTISRDNSKNTLYLQMNSLRAEDTAVYYCAKDRGLGDGTYFDYWGQGTTVTVSS
VL: QSALTQPASVSGSPGQSITISCSGSSSNIGNNAVNWYQQLPGKAPKLLIYYDDLLPSGVSDRFSGSKSGTSAFLAISGLQSEDEADYYCAAWDDSLNGPVFGGGTKLTVLG
notes: also called NKGD (KYK-2.0); anti-NKG2D parent antibody
- FACS Geometric Mean (NKG2D [1]): 31.1
- FACS Geometric Mean (NKG2D [2]): 284

B4: DVD1054 (bispecific antibody)
VH: QVQLVESGGGLVKPGGSLRLSCAASGFTFSSYGMHWVRQAPGKGLEWVAFIRYDGSNKYYADSVKGRFTISRDNSKNTLYLQMNSLRAEDTAVYYCAKDRGLGDGTYFDYWGQGTTVTVSSASTKGPSVFPLAPQVQLQQSGAELVRPGSSVKISCKASGYAFSSYWMNWVKQRPGQGLEWIGQIWPGDGDTNYNGKFKGKATLTADESSSTAYMQLSSLASEDSAVYFCARRETTTVGRYYYAMDYWGQGTSVTVSS
VL: QSALTQPASVSGSPGQSITISCSGSSSNIGNNAVNWYQQLPGKAPKLLIYYDDLLPSGVSDRFSGSKSGTSAFLAISGLQSEDEADYYCAAWDDSLNGPVFGGGTKLTVLGQPKAAPSVTLFPPDILLTQTPASLAVSLGQRATISCKASQSVDYDGDSYLNWYQQIPGQPPKLLIYDASNLVSGIPPRFSGSGSGTDFTLNIHPVEKVDAATYHCQQSTEDPWTFGGGTKLEIKR
notes: DVD-Ig; dual variable domains only; Outer AB121, inner AB006; also called DVD1054H + DVD1054L
- FACS Geometric Mean N-terminal (NKG2D [1]): 28.3

B5: DVD1214 (bispecific antibody)
VH: QVQLVESGGGLVKPGGSLRLSCAASGFTFSSYGMHWVRQAPGKGLEWVAFIRYDGSNKYYADSVKGRFTISRDNSKNTLYLQMNSLRAEDTAVYYCAKDRGLGDGTYFDYWGQGTTVTVSSASTKGPSVFPLAPQVQLQESGPGLVKPSQTLSLTCTVSGYSISSDFAWNWIRQPPGKGLEWMGYISYSGNTRYQPSLKSRITISRDTSKNQFFLKLNSVTAADTATYYCVTAGRGFPYWGQGTLVTVSS
VL: QSALTQPASVSGSPGQSITISCSGSSSNIGNNAVNWYQQLPGKAPKLLIYYDDLLPSGVSDRFSGSKSGTSAFLAISGLQSEDEADYYCAAWDDSLNGPVFGGGTKLTVLGQPKAAPSVTLFPPDIQMTQSPSSMSVSVGDRVTITCHSSQDINSNIGWLQQKPGKSFKGLIYHGTNLDDGVPSRFSGSGSGTDYTLTISSLQPEDFATYYCVQYAQFPWTFGGGTKLEIKR
notes: DVD-Ig; dual variable domains only; Outer AB121, inner AB064; also called DVD1214H + DVD1214L
- FACS Geometric Mean N-terminal (NKG2D [1]): 33.8

B6: DVD1052 (bispecific antibody)
VH: QVQLVESGGGLVKPGGSLRLSCAASGFTFSSYGMHWVRQAPGKGLEWVAFIRYDGSNKYYADSVKGRFTISRDNSKNTLYLQMNSLRAEDTAVYYCAKDRGLGDGTYFDYWGQGTTVTVSSASTKGPSVFPLAPQVQLQQPGAELVKPGASVKMSCKASGYTFTSYNMHWVKQTPGRGLEWIGAIYPGNGDTSYNQKFKGKATLTADKSSSTAYMQLSSLTSEDSAVYYCARSTYYGGDWYFNVWGAGTTVTVSA
VL: QSALTQPASVSGSPGQSITISCSGSSSNIGNNAVNWYQQLPGKAPKLLIYYDDLLPSGVSDRFSGSKSGTSAFLAISGLQSEDEADYYCAAWDDSLNGPVFGGGTKLTVLGQPKAAPSVTLFPPQIVLSQSPAILSPSPGEKVTMTCRASSSVSYIHWFQQKPGSSPKPWIYATSNLASGVPVRFSGSGSGTSYSLTISRVEAEDAATYYCQQWTSNPPTFGGGTKLEIKR
notes: DVD-Ig; the entries are the dual variable domains (outer VD - linker - inner VD) without constant domains; Outer AB121, inner AB001; also called NKG2D / CD-20 DVD-Ig; DVD1052H + DVD1052L
- FACS Geometric Mean N-terminal (NKG2D [1]): 36.4

B7: DVD1055 (bispecific antibody)
VH: QVQLQQSGAELVRPGSSVKISCKASGYAFSSYWMNWVKQRPGQGLEWIGQIWPGDGDTNYNGKFKGKATLTADESSSTAYMQLSSLASEDSAVYFCARRETTTVGRYYYAMDYWGQGTSVTVSSASTKGPSVFPLAPQVQLVESGGGLVKPGGSLRLSCAASGFTFSSYGMHWVRQAPGKGLEWVAFIRYDGSNKYYADSVKGRFTISRDNSKNTLYLQMNSLRAEDTAVYYCAKDRGLGDGTYFDYWGQGTTVTVSS
VL: DILLTQTPASLAVSLGQRATISCKASQSVDYDGDSYLNWYQQIPGQPPKLLIYDASNLVSGIPPRFSGSGSGTDFTLNIHPVEKVDAATYHCQQSTEDPWTFGGGTKLEIKRTVAAPSVFIFPPQSALTQPASVSGSPGQSITISCSGSSSNIGNNAVNWYQQLPGKAPKLLIYYDDLLPSGVSDRFSGSKSGTSAFLAISGLQSEDEADYYCAAWDDSLNGPVFGGGTKLTVLG
notes: DVD-Ig; dual variable domains only; Outer AB006, inner AB121; also called DVD1055H + DVD1055L
- FACS Geometric Mean C-terminal (NKG2D [1]): 21.2

— patent publication US20110044980A1 (AbbVie / Abbott, published 2011)
